± gives the standard deviation of the averaged measurements.
Tested on: ATP
Test: switch fluorescence ratio, 500 uM ATP over buffer (Cy3 cluster intensity, sum of 5 cycles each) (fold (ratio)); higher = stronger signal-on switching upon ATP binding; sequences stand for … in TCGTCGGCAGCGTCAGATGTGTATAAGAGACAGTTTTTTTTTTTTTTTTTTTTTTTTT…TC
Settings: aptamer strand: ATP DNA aptamer (quencher-CACCTGGGGGAGTATTGCGGAGGAAGG + anchor), 100 nM annealed; ATP concentration: 500 uM
How it was run: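 The fluorescence ratio divides summed target-cycle Cy3 intensity by summed buffer-cycle Cy3 intensity for each cluster and is averaged per switch-domain sequence. Cy3-labelled switching-strand clusters on a modified Illumina MiSeq flow-cell were annealed to 100 nM quencher-labelled ATP aptamer, then imaged in selection buffer and again after 15 min with 500 uM ATP at 22 °C. Five such cycles were run, with NaOH stripping and re-annealing between them, and clusters outside 100-1000 RFU were excluded.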
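Note: ATP exposure 15 min at 22 °C before imaging.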

Sequence	switch fluorescence ratio
TATGGGGTAT	0.9863 ± 0.0055
AGAATAGTGG	0.96 ± 0.037
TTGGTTATGT	0.969 ± 0.017
TGGGGTAGGA	0.988 ± 0.029
CTCAATTATG	0.972 ± 0.043
TTTATGTAGG	0.9887 ± 0.0044
TGATTGGGGA	1.005 ± 0.0043
CATACAATGC	2.02 ± 0.11
ACAGATGGGG	1.01 ± 0.015
CGGGGGGTCT	0.999 ± 0.04
TATGACAGGG	1.05 ± 0.024
TGCGGCTG	1.05 ± 0.039
TTTGTAAATA	1.008 ± 0.0069
ATAAAGGGAT	1 ± 0.034
CCAAAGGGTT	1.036 ± 0.0034
GCGTGAAGAA	1.03 ± 0.029
CGCTAATCAG	1.05 ± 0.043
TAGGTGTTGC	1 ± 0.023
GGTATTGGTT	0.987 ± 0.048
GGCTGGTTTC	0.9969 ± 0.0089
TGTAGGAGTG	1.25 ± 0.36
TAATTGGAGT	0.972 ± 0.014
ATGAGGTTCA	0.9759 ± 0.0049

Sequence	switch fluorescence ratio
GATGGGGTGT	1.03 ± 0.027
GTTGGTTACC	1.01 ± 0.041
TTTGACAGTG	0.966 ± 0.071
AGCGTCTGTG	0.962 ± 0.036
ATAGTGGGGT	0.987 ± 0.021
CCTAGTGGGG	1.04 ± 0.06
TTTGAAAATG	1.01 ± 0.035
TATTCTCTTT	1.04 ± 0.081
TAAGGGGGAG	0.999 ± 0.01
CTGAATGC	1.17 ± 0.035
TACGAATTTT	1.02 ± 0.012
AAGGGGGGGG	1.02 ± 0.055
ATTAAATACC	1.25 ± 0.29
TCAATTTAGA	1.03 ± 0.038
TCTGGGGAGG	1 ± 0.02
GTGTTTTTGT	0.9723 ± 0.0083
CTAGTGAGTG	0.984 ± 0.036
TAGATTTCTG	0.989 ± 0.025
GGCAAAAATT	1.01 ± 0.017
TAGAAACGCG	0.983 ± 0.025
GATGCTTATG	1.01 ± 0.04
TTGCCTGGGG	1.02 ± 0.013
GCAAACTAGG	1.11 ± 0.17

Sequence	switch fluorescence ratio
TTAGTTGGAT	1.04 ± 0.029
ACAGACCTAA	1.14 ± 0.013
GGGTGACGCG	1.01 ± 0.022
CTCTGAGCGG	1.03 ± 0.048
CGGAAATTTG	1.02 ± 0.032
TTGGTGTTTT	1.02 ± 0.03
TGGGGCGACG	0.994 ± 0.034
GTTGGAGGAA	0.976 ± 0.0098
ATCATCGGGG	0.988 ± 0.043
TGGGGTTTAT	1.01 ± 0.02
ATCAGAATCC	1.04 ± 0.013
TTTGAGAAGA	1.02 ± 0.012
TCCTGAGTTT	0.991 ± 0.047
ATATCCTTGG	0.984 ± 0.026
TGCGTTCAAG	0.9721 ± 0.0056
CTCCGGGGGA	1.33 ± 0.31
TATTTGTCCA	0.981 ± 0.047
GCTGTGTCCA	0.993 ± 0.01
CGACCACGTA	1.12 ± 0.029
TTGGTTTCTT	1.01 ± 0.023
ATCCTTGTTG	0.965 ± 0.027
AAACAAGTTG	1.02 ± 0.035
TCGGGAGATT	1.02 ± 0.029

Sequence	switch fluorescence ratio
ATTCCCGGAT	1.04 ± 0.046
CATTATATCG	1 ± 0.023
GGGGTAATGG	0.993 ± 0.034
TTTATTTTG	0.95563 ± 0.00051
ATGTATAAAT	0.9743 ± 0.009
TGTTGGGGGC	1.03 ± 0.12
CAGGTAAAGG	1.01 ± 0.022
GGTCATTGTT	0.9635 ± 0.0031
GGACTTCGCG	1.01 ± 0.085
GCCATTTTGG	0.993 ± 0.013
GGGGTTGGAA	0.9873 ± 0.0056
GCCATCGGGG	1.03 ± 0.012
TGCACGGGGG	1.03 ± 0.013
AAAACTTTTT	1.04 ± 0.051
GAAGTCTGTG	1 ± 0.047
ATGGGGTAGC	0.995 ± 0.012
TAGGATACTT	0.9769 ± 0.0016
GACTTCGTGG	1.01 ± 0.056
GTAATGCTTG	1.012 ± 0.01
GGGTCAGACG	1.06 ± 0.086
CAAGGGGGGT	1 ± 0.019
CCGCCATAAG	3.42 ± 0.68
TAAAGAAGGA	0.977 ± 0.042

Sequence	switch fluorescence ratio
GGGCCCGCGT	0.98 ± 0.011
CGTTGTCGTT	1.01 ± 0.055
CATTGTGGGA	0.997 ± 0.023
TCCGAATTGG	1.05 ± 0.022
GCCCGGGATT	1 ± 0.012
TTGGGGGCTC	0.998 ± 0.024
GTTTAGGATT	1.21 ± 0.33
TTATTTGTGT	0.987 ± 0.042
AGTTTTGTTA	1.02 ± 0.019
CAGCCTTATT	0.997 ± 0.029
AACATTCCTT	1.23 ± 0.08
TGGTGAGGGA	0.99 ± 0.014
AACGATATTC	1.07 ± 0.03
TGTTTTCATT	0.973 ± 0.044
TGGTGCAATC	2.36 ± 0.86
ATGAGTATTG	0.9888 ± 0.0078
GAGTTGTTGT	0.996 ± 0.018
ATCTCCGGGG	1.04 ± 0.016
GATTTTGCCA	0.9675 ± 0.0045
GGGAGGCAGA	0.989 ± 0.065
CGAAAATGTA	0.9772 ± 0.0089
ACCATATTTG	1.04 ± 0.058
CGAGGGACTG	0.984 ± 0.0099

Sequence	switch fluorescence ratio
CAGATTGCTC	0.982 ± 0.037
GAGTTTTGGC	0.952 ± 0.09
AGTCATATAG	1.062 ± 0.0056
ACGTTGACAG	1.05 ± 0.011
ACGTATTTTT	1.12 ± 0.018
TACAGGGCTC	1.05 ± 0.024
ATGGTGTGG	1.02 ± 0.074
CGGGATTGGG	0.96 ± 0.061
GAATGGTTGT	1.02 ± 0.023
TGTGTTGATG	1.01 ± 0.028
GGGGGTATGT	0.997 ± 0.02
ATTGTTATTT	1.02 ± 0.018
GGGAAATTGC	1.04 ± 0.074
TAAGGAGAGG	1.01 ± 0.027
TCGTACTGAC	1.03 ± 0.044
CGGGGTATGG	1 ± 0.011
AGGGGGATTA	0.993 ± 0.019
TTATTGTGCT	0.983 ± 0.031
TCGGGTGTGA	1.029 ± 0.0015
AAGGTGGATG	0.992 ± 0.021
TTTGGAGTCT	0.982 ± 0.031
ACCTGGATAC	1.86 ± 0.019
ATTGGGAGGG	1.022 ± 0.0026

Sequence	switch fluorescence ratio
TGGGAGAGTT	0.993 ± 0.023
ACTTCAGCGG	1.07 ± 0.015
ACTATCCAGG	2.226 ± 0.0049
CGTCCGGCAG	1.67 ± 0.083
TACGTACGCC	1.57 ± 0.073
TCTGATGTGA	1.08 ± 0.044
GGAGCGGCGG	1.02 ± 0.069
AGTTATAATT	1.005 ± 0.0076
GAGCAGAGGT	0.984 ± 0.011
TTTGCGGGTG	1.6 ± 0.91
AGGGCGTAAG	0.9716 ± 0.0055
CAACCGTGAG	1.02 ± 0.017
GAACTGAGTC	1.01 ± 0.046
ACCAGCGAAT	1.06 ± 0.043
AGAATAGGGT	0.9901 ± 0.0072
GTGAAAAGGG	0.963 ± 0.038
AAGAGGGGGC	0.986 ± 0.045
GGGAGTTGGG	1.02 ± 0.044
CAAAAATTAT	1.03 ± 0.044

— the supplement of paper PMC10126150
